According to patent publication US20230056470A1, “USES OF ANTI-TGF-BETA ANTIBODIES AND CHECKPOINT INHIBITORS FOR THE TREATMENT OF PROLIFERATIVE DISEASES” (NOVARTIS AG, priority 2019, published 2023):

What was measured:
[1] = Population PK analysis and model-based simulations of NIS793 (dose escalation phase of CNIS793X2101); set-up: species or system human
Method: This is consistent with the observation that NIS793 PK appears dose proportional and time-independent based on the non-compartmental analyses.
Further a dose of 1400 mg would also match exposure observed at 20 mg/kg.

[2] = Clinical PK of NIS793, study CNIS793X2101 (single agent and combination with PDR001; escalation and expansion; cycles 1 and 3); assay type: in vivo, human
[3] = Clinical PK of PDR001 in combination with NIS793, study CNIS793X2101; assay type: in vivo, human; conditions: 100 or 300 mg Q3W and 400 mg Q4W
[4] = Mean, cycle 1, NIS793 0.3 mg/kg Q3W + PDR 100 mg Q3W, escalation
[5] = Mean, cycle 1, NIS793 0.3 mg/kg Q3W + PDR 300 mg Q3W, escalation
[6] = Mean, cycle 1, NIS793 0.3 mg/kg Q3W Liquid, single agent, escalation
[7] = Mean, cycle 1, NIS793 1 mg/kg Q3W + PDR 300 mg Q3W, escalation
[8] = Mean, cycle 1, NIS793 1 mg/kg Q3W Liquid, single agent, escalation
[9] = Mean, cycle 1, NIS793 1 mg/kg Q3W Lyophilisate, single agent, escalation
[10] = Mean, cycle 1, NIS793 3 mg/kg Q3W + PDR 300 mg Q3W, escalation
[11] = Mean, cycle 1, NIS793 10 mg/kg Q3W + PDR 300 mg Q3W, escalation
[12] = Mean, cycle 1, NIS793 20 mg/kg Q2W + PDR 400 mg Q4W, escalation
[13] = Mean, cycle 1, NIS793 30 mg/kg Q2W + PDR 400 mg Q4W, escalation
[14] = Mean, cycle 1, NIS793 30 mg/kg Q3W + PDR 300 mg Q3W, escalation
[15] = cycle 1, NIS793 2100 mg Q3W + PDR 300 mg Q3W, MSS-CRC, expansion, mean
[16] = cycle 1, NIS793 2100 mg Q3W + PDR 300 mg Q3W, NSCLC, expansion, mean
[17] = cycle 3, NIS793 0.3 mg/kg Q3W + PDR 100 mg Q3W, escalation, mean
[18] = cycle 3, NIS793 0.3 mg/kg Q3W + PDR 300 mg Q3W, escalation, mean
[19] = cycle 3, NIS793 0.3 mg/kg Q3W Liquid, single agent, escalation, mean
[20] = cycle 3, NIS793 1 mg/kg Q3W + PDR 300 mg Q3W, escalation, mean
[21] = cycle 3, NIS793 1 mg/kg Q3W Liquid, single agent, escalation, mean
[22] = cycle 3, NIS793 1 mg/kg Q3W Lyophilisate, single agent, escalation, mean
[23] = cycle 3, NIS793 3 mg/kg Q3W + PDR 300 mg Q3W, escalation, mean
[24] = cycle 3, NIS793 10 mg/kg Q3W + PDR 300 mg Q3W, escalation, mean
[25] = cycle 3, NIS793 20 mg/kg Q2W + PDR 400 mg Q4W, escalation, mean
[26] = cycle 3, NIS793 30 mg/kg Q3W + PDR 300 mg Q3W, escalation, mean
[27] = cycle 3, NIS793 2100 mg Q3W + PDR 300 mg Q3W, MSS-CRC, expansion, mean (SD)

NIS793: fully human IgG2, human/mouse cross-reactive, TGF-β-neutralizing antibody; heavy and light chain SEQ ID NOs: 9 and 10
Population PK model that describes NIS793 pharmacokinetics ([1]; dose escalation concentration data): two compartment model with first order elimination from the central compartment | Estimated exponent of body weight as covariate on clearance (power model) ([1]; population PK model, CV %=40%): 0.55 | Increase in NIS793 exposure (Cycle 1 Cmax and AUClast) with dose ([2]; 30 minute intravenous infusion, 0.3 mg/kg to 30 mg/kg): approximately dose-proportional increase | AUClast [2, 4]: 1360000 ng·h/mL | Clast [2, 4]: 1400 ng/mL | Cmax [2, 4]: 6440 ng/mL | AUClast [2, 5]: 1700000 ng·h/mL | Clast [2, 5]: 1530 ng/mL | Cmax [2, 5]: 11200 ng/mL | AUClast [2, 6]: 1140000 ng·h/mL | Clast [2, 6]: 1060 ng/mL | Cmax [2, 6]: 7180 ng/mL | AUClast [2, 7]: 5850000 ng·h/mL | Clast [2, 7]: 8790 ng/mL | Cmax [2, 7]: 30800 ng/mL | AUClast [2, 8]: 4170000 ng·h/mL | Clast [2, 8]: 4320 ng/mL | Cmax [2, 8]: 24900 ng/mL | AUClast [2, 9]: 4770000 ng·h/mL | Clast [2, 9]: 4780 ng/mL | Cmax [2, 9]: 27600.0 ng/mL | AUClast [2, 10]: 11400000 ng·h/mL | Clast [2, 10]: 14300 ng/mL | Cmax [2, 10]: 58400 ng/mL | AUClast [2, 11]: 3750000 ng·h/mL | Clast [2, 11]: 44800 ng/mL | Cmax [2, 11]: 181000 ng/mL | AUClast [2, 12]: 54500000 ng·h/mL | Clast [2, 12]: 107000 ng/mL | Cmax [2, 12]: 333000 ng/mL | AUClast [2, 13]: 69100000 ng·h/mL | Clast [2, 13]: 154000 ng/mL | Cmax [2, 13]: 439000 ng/mL | AUClast [2, 14]: 90900000 ng·h/mL | Clast [2, 14]: 133000 ng/mL | Cmax [2, 14]: 519000 ng/mL | AUClast [2, 15]: 94700000 ng·h/mL | Clast [2, 15]: 206000 ng/mL | Cmax [2, 15]: 547000 ng/mL | AUClast [2, 16]: 140000000 ng·h/mL | Clast [2, 16]: 180000 ng/mL | Cmax [2, 16]: 743000 ng/mL | AUClast [2, 17]: 2530000 ng·h/mL | Clast [2, 17]: 2960 ng/mL | Cmax [2, 17]: 8990 ng/mL | AUClast [2, 18]: 2960000 ng·h/mL | Clast [2, 18]: 3330 ng/mL | Cmax [2, 18]: 11600 ng/mL | AUClast [2, 19]: 1820000 ng·h/mL | Clast [2, 19]: 1900 ng/mL | Cmax [2, 19]: 8750 ng/mL | AUClast [2, 20]: 5630000 ng·h/mL | Clast [2, 20]: 9710 ng/mL | Cmax [2, 20]: 31300 ng/mL | AUClast [2, 21]: 2910000 ng·h/mL | Clast [2, 21]: 4290 ng/mL | Cmax [2, 21]: 9830 ng/mL | AUClast [2, 22]: 4090000 ng·h/mL | Clast [2, 22]: 6350 ng/mL | Cmax [2, 22]: 13800 ng/mL | AUClast [2, 23]: 13900000 ng·h/mL | Clast [2, 23]: 16100 ng/mL | Cmax [2, 23]: 55200 ng/mL | AUClast [2, 24]: 69200000 ng·h/mL | Clast [2, 24]: 95900 ng/mL | Cmax [2, 24]: 220000 ng/mL | AUClast [2, 25]: 149000000 ng·h/mL | Clast [2, 25]: 154000 ng/mL | Cmax [2, 25]: 524000 ng/mL | AUClast [2, 26]: 242000000 ng·h/mL | Clast [2, 26]: 228000 ng/mL | Cmax [2, 26]: 713000 ng/mL | AUClast [2, 27]: 95500000 (88500000) h*ng/mL | Clast [2, 27]: 341000 (313000) ng/mL | Cmax [2, 27]: 590000 (319000) ng/mL | Between subject variability (CV %) for Cmax ([2]; patients, across dose cohorts): 12.1 to 73.3%

PDR001: anti-PD-1 inhibitor spartalizumab, also known as PDR001 (Novartis)
PK of PDR001 in combination with NIS793 versus single agent data [3]: appears to be similar to the single agent data
